Data reported in the supplement of paper PMC7125110.
± gives the standard error. Variants at the floor of the assay were thinned out.

B1: glmS ribozyme (parent)
chain: AUAAAAGCGCCAGAACUACAGAAAUGUAGUUGACGAGGAGGAGGUUUAUCGAAUUUUCGGCGGAUGCCUCCAAA

Legend:
Details in all cases: with glucosamine-6-phosphate
glucosamine-6-phosphate [1] = variants of: B1; test: self-cleavage kobs at 40 uM GlcN6P; higher = faster cleavage; RNA array
In short: (§1)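 E. coli RNA polymerase transcribed barcoded ribozyme variants in situ on sequenced MiSeq chips, which were tracked via a hybridised Cy3 probe at 37 °C. Tiles were imaged over ~14 h after glucosamine-6-phosphate (40 μM to 10 mM) in HEPES/KCl/Mg(OAc)2 buffer was flowed in. Normalised per-tile medians were fit to one- or two-exponential decays for kobs, and kcat and KM came from weighted Michaelis–Menten fits.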

glucosamine-6-phosphate [2] = variants of: B1; test: self-cleavage kobs at 10000 uM GlcN6P; higher = faster cleavage; RNA array
In short: as §1

glucosamine-6-phosphate [3] = variants of: B1; test: self-cleavage kobs at 2500 uM GlcN6P; higher = faster cleavage; RNA array
In short: as §1

glucosamine-6-phosphate [4] = variants of: B1; test: self-cleavage kobs at 160 uM GlcN6P; higher = faster cleavage; RNA array
In short: as §1

glucosamine-6-phosphate [5] = variants of: B1; test: self-cleavage kobs at 640 uM GlcN6P; higher = faster cleavage; RNA array
In short: as §1

Variant	self-cleavage kobs at 40 uM GlcN6P (glucosamine-6-phosphate [1]) [s⁻¹]	self-cleavage kobs at 10000 uM GlcN6P (glucosamine-6-phosphate [2]) [s⁻¹]	self-cleavage kobs at 2500 uM GlcN6P (glucosamine-6-phosphate [3]) [s⁻¹]	self-cleavage kobs at 160 uM GlcN6P (glucosamine-6-phosphate [4]) [s⁻¹]	self-cleavage kobs at 640 uM GlcN6P (glucosamine-6-phosphate [5]) [s⁻¹]
C11U A14C G38A C61G	< 1e-05	–	–	–	–
A36C G43A U47C	< 1e-05	–	–	–	–
C34U G59C C71G	< 1e-05	< 1e-05	–	–	–
U31G G35C G44U U54A	< 1e-05	< 1e-05	< 1e-05	–	–
A12U G44A C67U	0.00174 ± 0.00037	0.0153 ± 0.006	–	–	–
G37U A39G A42U C70U	< 1e-05	–	–	–	–
G63C G66C	< 1e-05	< 1e-05	< 1e-05	< 1e-05	< 1e-05
C10U U31C G32C U49A G51U G60C	< 1e-05	–	–	–	–
C8G G13A	< 1e-05	< 1e-05	< 1e-05	–	< 1e-05
G9C C34G	< 1e-05	< 1e-05	< 1e-05	< 1e-05	< 1e-05
U49G C58G	< 1e-05	–	–	–	–
U47G G63U	< 1e-05	< 1e-05	< 1e-05	< 1e-05	< 1e-05
A42G G60A C70G	< 1e-05	–	–	–	–
G9U C68A	< 1e-05	< 1e-05	< 1e-05	< 1e-05	–
A14U A15G A33U A48U C50U G60C	< 1e-05	–	–	–	–
A64C G66C	< 1e-05	–	–	< 1e-05	< 1e-05
C11G U49A	< 1e-05	–	< 1e-05	< 1e-05	< 1e-05
C11A A15G C58G C68A	8.59e-05 ± 2.2e-05	0.000145 ± 2.6e-05	–	–	–
G7U U45C U56A	< 1e-05	–	< 1e-05	–	< 1e-05
C8A A12G	< 1e-05	< 1e-05	< 1e-05	< 1e-05	< 1e-05
U57G G60U	< 1e-05	–	< 1e-05	< 1e-05	< 1e-05
G62U A64U	< 1e-05	< 1e-05	–	–	< 1e-05
G13U G38C G43U	< 1e-05	< 1e-05	–	–	–
